Target: P. falciparum cytochrome c-2 (PF3D7_1311700), recombinant (P. falciparum) (UniProt Q8I6T6)
Experiment: crystal structure

P. falciparum cytochrome c-2 (PF3D7_1311700), recombinant (from UniProt Q8I6T6 1-159) (natural protein)
stoichiometry N: 2
